# Measurements published in patent US20170107258A1 (CANCER RESEARCH TECHNOLOGY, published 2017).
# [ ]: non-standard residue; d: D form. βSer = β-serine (lower case s in P1); βArg = β-arginine (lower case r); βLeu = β-leucine (lower case l)
# T1: purified recombinant ADAM8
# T1 sequence (Q05910 whole entry, species assumed, looked up): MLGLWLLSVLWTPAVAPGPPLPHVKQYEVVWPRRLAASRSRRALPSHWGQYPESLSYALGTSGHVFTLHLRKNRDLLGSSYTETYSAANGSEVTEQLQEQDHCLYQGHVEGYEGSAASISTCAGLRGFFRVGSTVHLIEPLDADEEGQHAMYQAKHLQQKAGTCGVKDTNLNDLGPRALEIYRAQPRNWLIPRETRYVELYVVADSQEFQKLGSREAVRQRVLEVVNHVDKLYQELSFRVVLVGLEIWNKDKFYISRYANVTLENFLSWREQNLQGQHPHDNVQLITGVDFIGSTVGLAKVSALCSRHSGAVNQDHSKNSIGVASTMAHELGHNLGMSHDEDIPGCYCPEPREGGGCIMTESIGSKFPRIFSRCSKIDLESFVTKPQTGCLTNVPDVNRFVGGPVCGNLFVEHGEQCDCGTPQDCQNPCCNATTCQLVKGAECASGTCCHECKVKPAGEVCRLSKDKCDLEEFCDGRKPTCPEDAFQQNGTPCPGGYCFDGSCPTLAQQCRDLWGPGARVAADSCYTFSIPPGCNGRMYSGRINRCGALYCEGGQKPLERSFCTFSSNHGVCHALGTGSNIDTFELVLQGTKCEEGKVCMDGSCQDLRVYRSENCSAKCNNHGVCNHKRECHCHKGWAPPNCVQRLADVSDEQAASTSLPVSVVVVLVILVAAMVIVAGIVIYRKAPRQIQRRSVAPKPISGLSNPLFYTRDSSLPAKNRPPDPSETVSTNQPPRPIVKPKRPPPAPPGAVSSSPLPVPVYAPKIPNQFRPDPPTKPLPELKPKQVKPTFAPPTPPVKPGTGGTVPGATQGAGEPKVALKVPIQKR
# Experiments:
# Assay in all cases: cell-based or functional assay
# [1] = biological target: T1, purified recombinant ADAM8
# [2] = biological target: T1, purified recombinant ADAM8; remark: listed apart in the source
# [3] = biological target: T1, purified recombinant ADAM8; remark: listed apart in the source
ADAM inhibition with P1 (IC50; CD23 fluorogenic substrate) [1],IC50 of inhibition of ADAM8 catalytic activity [2],A8 Inhibition (IC50) [3],Binder
100 nM,~50 nM,100 nM,"cyclo(RL[βSer]KDK) [cyclic peptide P1, c(RLsKDK), cyclo(Arg-Leu-{β-Ser}-Lys-Asp-Lys)]"
,,> 500 nM,"cyclo([βArg]LSKDK) [cyclic peptide P2, c(rLSKDK)]"
,,> 500 nM,"cyclo(R[βLeu]SKDK) [cyclic peptide P3, c(RlSKDK)]"
